# Measurements published in patent publication US20220324939A1 (Regeneron, published 2022).
# T1: MAGE-A4 peptide on HLA-A*02:01 (human)
# T1 peptide: KVLEHVVRV
# B1: PN41746 (TCR, V domains shown)
# V domain 1: AQTVTQSQPEMSVQEAETVTLSCTYDTSESDYYLFWYKQPPSRQMILVIRQEAYKQQNATENRFSVNFQKAAKSFSLKISDSQLGDAAMYFCAYRSATGNQFYFGTGTSLTVIP
# V domain 2: DVKVTQSSRYLVKRTGEKVFLECVQDMDHENMFWYRQDPGLGLRLIYFSYDVKMKEKGDIPEGYSVSREKKERFSLILESASTNQTSMYLCASSLWGLNTEAFFGQGTRLTVV
# notes: stained with anti-mouse TCR constant region H57-597; full-length chains on transfected CHO cells; also called TCR No. 28
# B2: PN41702 (TCR, V domains shown)
# V domain 1: AQTVTQSQPEMSVQEAETVTLSCTYDTSESDYYLFWYKQPPSRQMILVIRQEAYKQQNATENRFSVNFQKAAKSFSLKISDSQLGDAAMYFCAYRSATGNQFYFGTGTSLTVIP
# V domain 2: DVKVTQSSRYLVKRTGEKVFLECVQDMDHENMFWYRQDPGLGLRLIYFSYDVKMKEKGDIPEGYSVSREKKERFSLILESASTNQTSMYLCASSLWAVNEKLFFGSGTQLSVL
# notes: stained with anti-mouse TCR constant region H57-597; full-length chains on transfected CHO cells; also called TCR No. 25
# B3: PN41617 (TCR, V domains shown)
# V domain 1: AQTVTQSQPEMSVQEAETVTLSCTYDTSESDYYLFWYKQPPSRQMILVIRQEAYKQQNATENRFSVNFQKAAKSFSLKISDSQLGDAAMYFCAYRSASGNQFYFGTGTSLTVIP
# V domain 2: DVKVTQSSRYLVKRTGEKVFLECVQDMDHENMFWYRQDPGLGLRLIYFSYDVKMKEKGDIPEGYSVSREKKERFSLILESASTNQTSMYLCASSLWGMNTEAFFGQGTRLTVV
# notes: stained with anti-mouse TCR constant region H57-597; full-length chains on transfected CHO cells; also called TCR No. 20
# B4: PN41577 (TCR, V domains shown)
# V domain 1: AQTVTQSQPEMSVQEAETVTLSCTYDTSESDYYLFWYKQPPSRQMILVIRQEAYKQQNATENRFSVNFQKAAKSFSLKISDSQLGDAAMYFCAYRSAPGNQFYFGTGTSLTVIP
# V domain 2: DVKVTQSSRYLVKRTGEKVFLECVQDMDHENMFWYRQDPGLGLRLIYFSYDVKMKEKGDIPEGYSVSREKKERFSLILESASTNQTSMYLCASSLWGTNEKLFFGSGTQLSVL
# notes: stained with anti-mouse TCR constant region H57-597; full-length chains on transfected CHO cells; also called TCR No. 16
# B5: PN41573 (TCR, V domains shown)
# V domain 1: AQTVTQSQPEMSVQEAETVTLSCTYDTSESDYYLFWYKQPPSRQMILVIRQEAYKQQNATENRFSVNFQKAAKSFSLKISDSQLGDAAMYFCAYRSATGNQFYFGTGTSLTVIP
# V domain 2: DVKVTQSSRYLVKRTGEKVFLECVQDMDHENMFWYRQDPGLGLRLIYFSYDVKMKEKGDIPEGYSVSREKKERFSLILESASTNQTSMYLCASSLWGTNEKLFFGSGTQLSVL
# notes: stained with anti-mouse TCR constant region H57-597; full-length chains on transfected CHO cells; also called TCR No. 15
# B6: PN41494 (TCR, V domains shown)
# V domain 1: AQTVTQSQPEMSVQEAETVTLSCTYDTSESDYYLFWYKQPPSRQMILVIRQEAYKQQNATENRFSVNFQKAAKSFSLKISDSQLGDAAMYFCAYRSATGNQFYFGTGTSLTVIP
# V domain 2: DVKVTQSSRYLVKRTGEKVFLECVQDMDHENMFWYRQDPGLGLRLIYFSYDVKMKEKGDIPEGYSVSREKKERFSLILESASTNQTSMYLCASSLWGWNSPLHFGNGTRLTVT
# notes: stained with anti-mouse TCR constant region H57-597; full-length chains on transfected CHO cells; also called TCR No. 2
# B7: PN41559 (TCR, V domains shown)
# V domain 1: AQTVTQSQPEMSVQEAETVTLSCTYDTSESDYYLFWYKQPPSRQMILVIRQEAYKQQNATENRFSVNFQKAAKSFSLKISDSQLGDAAMYFCAYRSATGNQFYFGTGTSLTVIP
# V domain 2: DVKVTQSSRYLVKRTGEKVFLECVQDMDHENMFWYRQDPGLGLRLIYFSYDVKMKEKGDIPEGYSVSREKKERFSLILESASTNQTSMYLCASSLWGWGTEAFFGQGTRLTVV
# notes: stained with anti-mouse TCR constant region H57-597; full-length chains on transfected CHO cells; also called TCR No. 12
# B8: PN41607 (TCR, V domains shown)
# V domain 1: AQTVTQSQPEMSVQEAETVTLSCTYDTSESDYYLFWYKQPPSRQMILVIRQEAYKQQNATENRFSVNFQKAAKSFSLKISDSQLGDAAMYFCAYRSASGNQFYFGTGTSLTVIP
# V domain 2: DVKVTQSSRYLVKRTGEKVFLECVQDMDHENMFWYRQDPGLGLRLIYFSYDVKMKEKGDIPEGYSVSREKKERFSLILESASTNQTSMYLCASSLWGTNEKLFFGSGTQLSVL
# notes: stained with anti-mouse TCR constant region H57-597; full-length chains on transfected CHO cells; also called TCR No. 17
# B9: PN41532 (TCR, V domains shown)
# V domain 1: AQTVTQSQPEMSVQEAETVTLSCTYDTSESDYYLFWYKQPPSRQMILVIRQEAYKQQNATENRFSVNFQKAAKSFSLKISDSQLGDAAMYFCAYRSAEGNQFYFGTGTSLTVIP
# V domain 2: DVKVTQSSRYLVKRTGEKVFLECVQDMDHENMFWYRQDPGLGLRLIYFSYDVKMKEKGDIPEGYSVSREKKERFSLILESASTNQTSMYLCASSLWGLNTEAFFGQGTRLTVV
# notes: stained with anti-mouse TCR constant region H57-597; full-length chains on transfected CHO cells; also called TCR No. 8
# B10: PN41523 (TCR, V domains shown)
# V domain 1: AQTVTQSQPEMSVQEAETVTLSCTYDTSESDYYLFWYKQPPSRQMILVIRQEAYKQQNATENRFSVNFQKAAKSFSLKISDSQLGDAAMYFCAYRSAPGNQFYFGTGTSLTVIP
# V domain 2: DVKVTQSSRYLVKRTGEKVFLECVQDMDHENMFWYRQDPGLGLRLIYFSYDVKMKEKGDIPEGYSVSREKKERFSLILESASTNQTSMYLCASSLWGLNTEAFFGQGTRLTVV
# notes: stained with anti-mouse TCR constant region H57-597; full-length chains on transfected CHO cells; also called TCR No. 7
# B11: PN41568 (TCR, V domains shown)
# V domain 1: AQTVTQSQPEMSVQEAETVTLSCTYDTSESDYYLFWYKQPPSRQMILVIRQEAYKQQNATENRFSVNFQKAAKSFSLKISDSQLGDAAMYFCAYRSARGNQFYFGTGTSLTVIP
# V domain 2: DVKVTQSSRYLVKRTGEKVFLECVQDMDHENMFWYRQDPGLGLRLIYFSYDVKMKEKGDIPEGYSVSREKKERFSLILESASTNQTSMYLCASSLWGTNEKLFFGSGTQLSVL
# notes: stained with anti-mouse TCR constant region H57-597; full-length chains on transfected CHO cells; also called TCR No. 14
# B12: PN41513 (TCR, V domains shown)
# V domain 1: AQTVTQSQPEMSVQEAETVTLSCTYDTSESDYYLFWYKQPPSRQMILVIRQEAYKQQNATENRFSVNFQKAAKSFSLKISDSQLGDAAMYFCAYRSAPGNQFYFGTGTSLTVIP
# V domain 2: DVKVTQSSRYLVKRTGEKVFLECVQDMDHENMFWYRQDPGLGLRLIYFSYDVKMKEKGDIPEGYSVSREKKERFSLILESASTNQTSMYLCASSLFATNEKLFFGSGTQLSVL
# notes: stained with anti-mouse TCR constant region H57-597; full-length chains on transfected CHO cells; also called TCR No. 3
# B13: PN41520 (TCR, V domains shown)
# V domain 1: AQTVTQSQPEMSVQEAETVTLSCTYDTSESDYYLFWYKQPPSRQMILVIRQEAYKQQNATENRFSVNFQKAAKSFSLKISDSQLGDAAMYFCAYRSARGNQFYFGTGTSLTVIP
# V domain 2: DVKVTQSSRYLVKRTGEKVFLECVQDMDHENMFWYRQDPGLGLRLIYFSYDVKMKEKGDIPEGYSVSREKKERFSLILESASTNQTSMYLCASSLWGVNSPLHFGNGTRLTVT
# notes: stained with anti-mouse TCR constant region H57-597; full-length chains on transfected CHO cells; also called TCR No. 6
# B14: PN41565 (TCR, V domains shown)
# V domain 1: AQTVTQSQPEMSVQEAETVTLSCTYDTSESDYYLFWYKQPPSRQMILVIRQEAYKQQNATENRFSVNFQKAAKSFSLKISDSQLGDAAMYFCAYRSPTGNQFYFGTGTSLTVIP
# V domain 2: DVKVTQSSRYLVKRTGEKVFLECVQDMDHENMFWYRQDPGLGLRLIYFSYDVKMKEKGDIPEGYSVSREKKERFSLILESASTNQTSMYLCASSLWAMNTEAFFGQGTRLTVV
# notes: stained with anti-mouse TCR constant region H57-597; full-length chains on transfected CHO cells; also called TCR No. 13
# B15: PN41690 (TCR, V domains shown)
# V domain 1: AQTVTQSQPEMSVQEAETVTLSCTYDTSESDYYLFWYKQPPSRQMILVIRQEAYKQQNATENRFSVNFQKAAKSFSLKISDSQLGDAAMYFCAYRSAIGNQFYFGTGTSLTVIP
# V domain 2: DVKVTQSSRYLVKRTGEKVFLECVQDMDHENMFWYRQDPGLGLRLIYFSYDVKMKEKGDIPEGYSVSREKKERFSLILESASTNQTSMYLCASSLWGVNTEAFFGQGTRLTVV
# notes: stained with anti-mouse TCR constant region H57-597; full-length chains on transfected CHO cells; also called TCR No. 24
# B16: PN41822 (TCR, V domains shown)
# V domain 1: AQTVTQSQPEMSVQEAETVTLSCTYDTSESDYYLFWYKQPPSRQMILVIRQEAYKQQNATENRFSVNFQKAAKSFSLKISDSQLGDAAMYFCAYRSATGNQFYFGTGTSLTVIP
# V domain 2: DVKVTQSSRYLVKRTGEKVFLECVQDMDHENMFWYRQDPGLGLRLIYFSYDVKMKEKGDIPEGYSVSREKKERFSLILESASTNQTSMYLCASSLWALNTEAFFGQGTRLTVV
# notes: stained with anti-mouse TCR constant region H57-597; full-length chains on transfected CHO cells; also called TCR No. 32
# B17: PN41608 (TCR, V domains shown)
# V domain 1: AQTVTQSQPEMSVQEAETVTLSCTYDTSESDYYLFWYKQPPSRQMILVIRQEAYKQQNATENRFSVNFQKAAKSFSLKISDSQLGDAAMYFCAYRSAPGNQFYFGTGTSLTVIP
# V domain 2: DVKVTQSSRYLVKRTGEKVFLECVQDMDHENMFWYRQDPGLGLRLIYFSYDVKMKEKGDIPEGYSVSREKKERFSLILESASTNQTSMYLCASSFWGWNTEAFFGQGTRLTVV
# notes: stained with anti-mouse TCR constant region H57-597; full-length chains on transfected CHO cells; also called TCR No. 18
# B18: PN41475 (TCR, V domains shown)
# V domain 1: AQTVTQSQPEMSVQEAETVTLSCTYDTSESDYYLFWYKQPPSRQMILVIRQEAYKQQNATVNRFSVNFQKAAKSFSLKISDSQLGDAAMYFCAYRSATGNQFYFGTGTSLTVIP
# V domain 2: DVKVTQSSRYLVKRTGEKVFLECVQDMDHENMFWYRQDPGLGLRLIYFSYDVKMKEKGDIPEGYSVSREKKERFSLILESASTNQTSMYLCASSLWGSNTEAFFGQGTRLTVV
# notes: stained with anti-mouse TCR constant region H57-597; full-length chains on transfected CHO cells; also called TCR No. 1
# B19: PN41829 (TCR, V domains shown)
# V domain 1: AQTVTQSQPEMSVQEAETVTLSCTYDTSESDYYLFWYKQPPSRQMILVIRQEAYKQQNATENRFSVNFQKAAKSFSLKISDSQLGDAAMYFCAYRSATGNQFYFGTGTSLTVIP
# V domain 2: DVKVTQSSRYLVKRTGEKVFLECVQDMDHENMFWYRQDPGLGLRLIYFSYDVKMKEKGDIPEGYSVSREKKERFSLILESASTNQTSMYLCASSLFALNTEAFFGQGTRLTVV
# notes: stained with anti-mouse TCR constant region H57-597; full-length chains on transfected CHO cells; also called TCR No. 33
# B20: PN41518 (TCR, V domains shown)
# V domain 1: AQTVTQSQPEMSVQEAETVTLSCTYDTSESDYYLFWYKQPPSRQMILVIRQEAYKQQNATENRFSVNFQKAAKSFSLKISDSQLGDAAMYFCAYRSAPGNQFYFGTGTSLTVIP
# V domain 2: DVKVTQSSRYLVKRTGEKVFLECVQDMDHENMFWYRQDPGLGLRLIYFSYDVKMKEKGDIPEGYSVSREKKERFSLILESASTNQTSMYLCASSLWATNEKLFFGSGTQLSVL
# notes: stained with anti-mouse TCR constant region H57-597; full-length chains on transfected CHO cells; also called TCR No. 5
# Assays:
# [1] = target: T2, soluble HLA-A2 (…) tetramer (human); assay: flow cytometry, HLA-A2 (…) tetramer staining of CHO cells transfected with the TCR
# T2 construct: Bought tetramer reagent; also called MAGE-A4/HLA tetramer reagent; HLA-A02:01 MAGE-A4 tetramer
# Procedure: Samples were then analyzed on an LSRFortessa X-20 (BD Biosciences, San Jose, Calif.).
# [2] = target: T1, MAGE-A4 peptide on HLA-A*02:01; assay: multimer staining
Binder,"% in Ag+ gate >250 MFI, >1% [1]",binding result [2]
B1,90.2%,recognises
B2,8.13%,recognises
B3,90.6%,recognises
B4,80%,recognises
B5,85.7%,recognises
B6,9.24%,recognises
B7,74.3%,recognises
B8,81%,recognises
B9,85.4%,recognises
B10,90.5%,recognises
B11,82.9%,recognises
B12,29.6%,recognises
B13,16.9%,recognises
B14,4.02%,recognises
B15,75.3%,recognises
B16,63.5%,recognises
B17,77%,recognises
B18,65.5%,recognises
B19,19.5%,recognises
B20,34.9%,recognises
